From US8815802 (Novo Nordisk, dated 2014)
Numbered stars: 1 amine (or outer) side, 2 acyl side, 3 side chain; on linkers, the order of the positions; unused ones are H or OH. Square brackets hold non-standard residues; d marks the D form. Side chains are listed from the residue outwards. Ends that are not written are not given here. * marks the point of attachment. Malonyl(2,2-Me2,histaminyl) = CC(C)(C(=O)NCCc1cnc[nH]1)C(=O)*; C20 diacid = O=C(O)CCCCCCCCCCCCCCCCCCC(=O)*; C18 diacid = O=C(O)CCCCCCCCCCCCCCCCC(=O)*; C16 diacid = O=C(O)CCCCCCCCCCCCCCC(=O)*; γGlu = O=C(O)[C@H](CCC(=O)[*:2])N[*:1]; Desaminohistidyl = O=C(CCc1c[nH]cn1)*; Palmitoyl = CCCCCCCCCCCCCCCC(=O)*; Trx = NC[C@H]1CC[C@H](C(=O)O)CC1; AEEA = NCCOCCOCC(=O)O; Aib = CC(C)(N)C(=O)O; Inp = O=C(O)C1CCNCC1

B1: N^8 3H-Imidazol-4-yl-acetyl, N^ε28-[2-(2-{2-[2-(2-{2-[(S)-4-Carboxy-4-(17-carboxyheptadecanoylamino)butyrylamino]ethoxy}ethoxy)acetylamino] … (peptide)
peptide: AEGTFTSDVSSYLEGQAAK([AEEA-AEEA-γGlu-C18 diacid])EFIAHLVQGRG
modifications: not fully specified (N-terminus); printed as N^8 3H-Imidazol-4-yl-acetyl, N^ε28-[2-(2-{2-[2-(2-{2-[(S)-4-Carboxy-4-(17-carboxyheptadecanoylamino)butyrylamino]ethoxy}ethoxy)acetylamino] ethoxy}ethoxy)acetyl][His^31,Gln^34]GLP-1(8-37)-peptide
B2: [Aib^8,His^31,Gln^34]GLP-1(7-37)-peptide (peptide)
peptide: HXEGTFTSDVSSYLEGQAAKEFIAHLVQGRG
modifications: Aib8 (GLP-1(7-37) numbering)
notes: unacylated analogue; also called (8Aib, 31H, 34Q)
B3: [Imp^7,Glu^22,Arg^26,His^31,Gln^34,Lys^37]-GLP-1-(7-37)-peptide (peptide)
peptide: [Desaminohistidyl]AEGTFTSDVSSYLEEQAAREFIAHLVQGRK
notes: unacylated analogue; also called Chem. 40

The binders below were run against T1, human GLP-1 receptor (human, UniProt P43220 24-463) (assay: SPA, displacement of 125I-GLP-1(7-36)NH2 from hGLP-1R membranes, 2.0% HSA).
T1 construct: whole, on cells; Used as purified plasma membranes of the transfected hamster cell line, not as intact cells; also called hGLP-1
Experimental: (§1) 25 ul (micro liter) of test compounds were added to Optiplate. HSA ("high albumin" experiment containing 2% HSA), or buffer ("low albumin" experiment containing 0.005% HSA), was added (50 ul). 5-10 ug protein/sample was added (50 ul) corresponding to 0.1-0.2 mg protein/ml (to be preferably optimised for each membrane preparation). SPA-particles (Wheatgerm agglutinin SPA beads, Perkin Elmer, #RPNQ0001) were added in an amount of 0.5 mg/well (50 ul). […] The plates were sealed with PlateSealer and incubated for 120 minutes at 30° C. while shaking. The plates were centrifuged (1500 rpm, 10 min) and counted in Topcounter.

Binder | IC50 [µM]
[Desaminohistidyl]AEGTFTSDVSSYLEEQAAREFIAHLVQGRK([AEEA-AEEA-γ‑D‑Glu-Trx-C20 diacid]) | ≤ 1
HAEGTFTSDVSSYLEGQAAK([AEEA-AEEA-γGlu-C18 diacid])EFIAHLVQGRG | ≤ 1
HAEGTFTSDVSSYLEK([AEEA-AEEA-γGlu-C18 diacid])QAAREFIAHLVQGRG | ≤ 1
HAEGTK([AEEA-AEEA-γGlu-C18 diacid])TSDVSSYLEEQAAREFIAHLVQGRG | ≤ 1
HSEGTFTSDVSSYLEGQAAK([AEEA-AEEA-γGlu-C18 diacid])EFIAHLVQGRG | ≤ 1
HAEGTK([AEEA-AEEA-C18 diacid])TSDVSSYLEEQAAREFIAHLVQGRG | ≤ 1
HGEGTFTSDVSSYLEGQAAK([AEEA-AEEA-γGlu-C18 diacid])EFIAHLVQGRG | ≤ 1
HAEGTFTSDVSSYLEEQK([AEEA-AEEA-γGlu-C18 diacid])AREFIAHLVQGRG | ≤ 1
H[dA]EGTFTSDVSSYLEGQAAK([AEEA-AEEA-γGlu-C18 diacid])EFIAHLVQGRG | ≤ 1
B1 | ≤ 1
B2 | ≤ 1
HXEGTFTSDVSSYLEGQAAKEFIAHLVQGRG (Aib8; Lys26 N-epsilon-acylated (side chain as in name); GLP-1(7-37) numbering) [N^ε26 [2-(2-(2-{2-[(S)-4-Carboxy-4-(15-carboxypentadecanoylamino)butyrylamino]ethoxy}ethoxy)acetyl][Aib^8,His^31,Gln^34]GLP-1(7-37)-peptide, listing 1 of 5 here] | ≤ 1
HXEGTFTSDVSSYLEGQAAKEFIAHLVQGRG (Aib8; Lys26 N-epsilon-acylated (side chain as in name); GLP-1(7-37) numbering) [N^ε26[2-(2-{2-[(S)-4-Carboxy-4-(2-{2-[2-(17-carboxy-heptadecanoylamino)ethoxy]ethoxy}acetylamino)butyryl amino]ethoxy}ethoxy)acetyl] …, listing 2 of 5 here] | ≤ 1
HXEGTFTSDVSSYLEGQAAKEFIAHLVQGRG (Aib8; Lys26 N-epsilon-acylated (side chain as in name); GLP-1(7-37) numbering) [N^ε26 [(S)-4-Carboxy-4-(2-{2-[2-(2-{2-[2-(17-carboxy-heptadecanoylamino)ethoxy]ethoxy}acetylamino)ethoxy]-ethoxy}acetylamino)butyryl] …, listing 3 of 5 here] | ≤ 1
HXEGTFTSDVSSYLEGQAAKEFIAHLVQGRG (Aib8; Lys26 N-epsilon-acylated (side chain as in name); GLP-1(7-37) numbering) [N^ε26 [(S)-4-Carboxy-4-(15-carboxypentadecanoylamino)butyryl][Aib^8,His^31,Gln^34]GLP-1(7-37)-peptide, listing 4 of 5 here] | ≤ 1
HXEGTFTSDVSSYLEGQAAKEFIAHLVQGRG (Aib8; Lys26 N-epsilon-acylated (side chain as in name); GLP-1(7-37) numbering) [N^ε26-[2-(2-{2-[2-(2-{2-[(S)-4-Carboxy-4-(15-carboxypentadecanoylamino)butyrylamino]ethoxy}ethoxy)acetylamino]ethoxy}ethoxy)acetyl][Aib^8,His^31,Gln^34]GLP-1(7- …, listing 5 of 5 here] | ≤ 1

Binder | IC50 [µM]
H[Aib]EGTFTSDVSSYLEEQAARK([AEEA-AEEA-γGlu-C18 diacid])FIEHLVQGRP | ≤ 1
H[Aib]EGTK([AEEA-AEEA-γGlu-C18 diacid])TSDVSSYLEEQAAREFIAHLVQGRG | ≤ 1
H[Aib]EGTFTSDVSK([AEEA-AEEA-γGlu-Inp-C20 diacid])YLEEQAAHEFIAHLVQGRG | ≤ 1
H[Aib]EGTFTSDVSSYLEEQAARK([AEEA-AEEA-γGlu-C18 diacid])FIAHLVQGRG | ≤ 1
H[Aib]EGTK([AEEA-AEEA-γGlu-C18 diacid])TSDVSSYLEGQAAKEFIAHLVQGRG | ≤ 1
H[Aib]EGTFTSDVSK([AEEA-AEEA-γGlu-C18 diacid])YLEEQAAREFIAHLVQGRG | ≤ 1
H[Aib]EGTFTSDVSSYLEGQAARK([AEEA-AEEA-γGlu-C18 diacid])FIAHLVQGRG | ≤ 1
H[Aib]EGTFTSDK([AEEA-AEEA-γGlu-C18 diacid])SSYLEEQAAREFIAHLVQGRG | ≤ 1
H[Aib]EGTK([AEEA-AEEA-C18 diacid])TSDVSSYLEEQAAREFIAHLVQGRG | ≤ 1
H[Aib]EGTFTSDVSSYLEEQK([AEEA-AEEA-γGlu-C18 diacid])AREFIAHLVQGRG | ≤ 1
H[Aib]EGTFTSDVSSYLEGQAIRK([AEEA-AEEA-γGlu-C18 diacid])FIAHLVQGRG | ≤ 1
HAEGTFTSDVSSYLEGQAAK([γGlu-C16 diacid])EFIAHLVQGRG [N^ε26-[(4S)-4-carboxy-4-(15-carboxypentadecanoylamino)butanoyl]-[His^31,Gln^34]-GLP-1-(7-37)-peptide] | ≤ 1
{Malonyl(2,2-Me2,histaminyl)}-EGTFTSDVSSYLEGQAAK([AEEA-AEEA-γGlu-C18 diacid])EFIAHLVQGRG (also called Chem. 37) | ≤ 1
HAEGTFTSDVSSYLEGQAAK([γGlu-Palmitoyl])EFIAHLVQGRG [N^ε26-[(4S)-4-carboxy-4-(hexadecanoylamino)butanoyl]-[His^31,Gln^34]-GLP-1-(7-37)-peptide] | ≤ 1
B3 | ≤ 1

These binders were tested against T1, human GLP-1 receptor (assay: SPA, displacement of 125I-GLP-1(7-36)NH2 from hGLP-1R membranes, 0.005% HSA).
Experimental: as §1

Binder | IC50 [µM]
[Desaminohistidyl]AEGTFTSDVSSYLEEQAAREFIAHLVQGRK([AEEA-AEEA-γ‑D‑Glu-Trx-C20 diacid]) | < 0.6
HAEGTFTSDVSSYLEGQAAK([AEEA-AEEA-γGlu-C18 diacid])EFIAHLVQGRG | < 0.6
HAEGTFTSDVSSYLEK([AEEA-AEEA-γGlu-C18 diacid])QAAREFIAHLVQGRG | < 0.6
HAEGTK([AEEA-AEEA-γGlu-C18 diacid])TSDVSSYLEEQAAREFIAHLVQGRG | < 0.6
HSEGTFTSDVSSYLEGQAAK([AEEA-AEEA-γGlu-C18 diacid])EFIAHLVQGRG | < 0.6
HAEGTK([AEEA-AEEA-C18 diacid])TSDVSSYLEEQAAREFIAHLVQGRG | < 0.6
HGEGTFTSDVSSYLEGQAAK([AEEA-AEEA-γGlu-C18 diacid])EFIAHLVQGRG | < 0.6
HAEGTFTSDVSSYLEEQK([AEEA-AEEA-γGlu-C18 diacid])AREFIAHLVQGRG | < 0.6
H[dA]EGTFTSDVSSYLEGQAAK([AEEA-AEEA-γGlu-C18 diacid])EFIAHLVQGRG | < 0.6
B1 | < 0.6
B2 | < 0.6
HXEGTFTSDVSSYLEGQAAKEFIAHLVQGRG (Aib8; Lys26 N-epsilon-acylated (side chain as in name); GLP-1(7-37) numbering) [N^ε26 [2-(2-(2-{2-[(S)-4-Carboxy-4-(15-carboxypentadecanoylamino)butyrylamino]ethoxy}ethoxy)acetyl][Aib^8,His^31,Gln^34]GLP-1(7-37)-peptide, listing 1 of 5 here] | < 0.6
HXEGTFTSDVSSYLEGQAAKEFIAHLVQGRG (Aib8; Lys26 N-epsilon-acylated (side chain as in name); GLP-1(7-37) numbering) [N^ε26[2-(2-{2-[(S)-4-Carboxy-4-(2-{2-[2-(17-carboxy-heptadecanoylamino)ethoxy]ethoxy}acetylamino)butyryl amino]ethoxy}ethoxy)acetyl] …, listing 2 of 5 here] | < 0.6
HXEGTFTSDVSSYLEGQAAKEFIAHLVQGRG (Aib8; Lys26 N-epsilon-acylated (side chain as in name); GLP-1(7-37) numbering) [N^ε26 [(S)-4-Carboxy-4-(2-{2-[2-(2-{2-[2-(17-carboxy-heptadecanoylamino)ethoxy]ethoxy}acetylamino)ethoxy]-ethoxy}acetylamino)butyryl] …, listing 3 of 5 here] | < 0.6
HXEGTFTSDVSSYLEGQAAKEFIAHLVQGRG (Aib8; Lys26 N-epsilon-acylated (side chain as in name); GLP-1(7-37) numbering) [N^ε26 [(S)-4-Carboxy-4-(15-carboxypentadecanoylamino)butyryl][Aib^8,His^31,Gln^34]GLP-1(7-37)-peptide, listing 4 of 5 here] | < 0.6
HXEGTFTSDVSSYLEGQAAKEFIAHLVQGRG (Aib8; Lys26 N-epsilon-acylated (side chain as in name); GLP-1(7-37) numbering) [N^ε26-[2-(2-{2-[2-(2-{2-[(S)-4-Carboxy-4-(15-carboxypentadecanoylamino)butyrylamino]ethoxy}ethoxy)acetylamino]ethoxy}ethoxy)acetyl][Aib^8,His^31,Gln^34]GLP-1(7- …, listing 5 of 5 here] | < 0.6

Binder | IC50 [µM]
H[Aib]EGTFTSDVSSYLEEQAARK([AEEA-AEEA-γGlu-C18 diacid])FIEHLVQGRP | < 0.6
H[Aib]EGTK([AEEA-AEEA-γGlu-C18 diacid])TSDVSSYLEEQAAREFIAHLVQGRG | < 0.6
H[Aib]EGTFTSDVSK([AEEA-AEEA-γGlu-Inp-C20 diacid])YLEEQAAHEFIAHLVQGRG | < 0.6
H[Aib]EGTFTSDVSSYLEEQAARK([AEEA-AEEA-γGlu-C18 diacid])FIAHLVQGRG | < 0.6
H[Aib]EGTK([AEEA-AEEA-γGlu-C18 diacid])TSDVSSYLEGQAAKEFIAHLVQGRG | < 0.6
H[Aib]EGTFTSDVSK([AEEA-AEEA-γGlu-C18 diacid])YLEEQAAREFIAHLVQGRG | < 0.6
H[Aib]EGTFTSDVSSYLEGQAARK([AEEA-AEEA-γGlu-C18 diacid])FIAHLVQGRG | < 0.6
H[Aib]EGTFTSDK([AEEA-AEEA-γGlu-C18 diacid])SSYLEEQAAREFIAHLVQGRG | < 0.6
H[Aib]EGTK([AEEA-AEEA-C18 diacid])TSDVSSYLEEQAAREFIAHLVQGRG | < 0.6
H[Aib]EGTFTSDVSSYLEEQK([AEEA-AEEA-γGlu-C18 diacid])AREFIAHLVQGRG | < 0.6
H[Aib]EGTFTSDVSSYLEGQAIRK([AEEA-AEEA-γGlu-C18 diacid])FIAHLVQGRG | < 0.6
HAEGTFTSDVSSYLEGQAAK([γGlu-C16 diacid])EFIAHLVQGRG [N^ε26-[(4S)-4-carboxy-4-(15-carboxypentadecanoylamino)butanoyl]-[His^31,Gln^34]-GLP-1-(7-37)-peptide] | < 0.6
{Malonyl(2,2-Me2,histaminyl)}-EGTFTSDVSSYLEGQAAK([AEEA-AEEA-γGlu-C18 diacid])EFIAHLVQGRG (also called Chem. 37) | < 0.6
HAEGTFTSDVSSYLEGQAAK([γGlu-Palmitoyl])EFIAHLVQGRG [N^ε26-[(4S)-4-carboxy-4-(hexadecanoylamino)butanoyl]-[His^31,Gln^34]-GLP-1-(7-37)-peptide] | < 0.6
B3 | < 0.6
